Reference: patent publication US20210155689A1 (SHANGHAI PHARMAEXPLORER, published 2021)

T1: human LAG-3 protein with hFc tag (hLAG-3-hFc protein) (human, UniProt P18627 23-450)
T1 construct: also called immunogen 1; LAG-3 extracellular domain protein; not shown: human IgG Fc fragment (hFc) of the pCpC vector
T1 sequence: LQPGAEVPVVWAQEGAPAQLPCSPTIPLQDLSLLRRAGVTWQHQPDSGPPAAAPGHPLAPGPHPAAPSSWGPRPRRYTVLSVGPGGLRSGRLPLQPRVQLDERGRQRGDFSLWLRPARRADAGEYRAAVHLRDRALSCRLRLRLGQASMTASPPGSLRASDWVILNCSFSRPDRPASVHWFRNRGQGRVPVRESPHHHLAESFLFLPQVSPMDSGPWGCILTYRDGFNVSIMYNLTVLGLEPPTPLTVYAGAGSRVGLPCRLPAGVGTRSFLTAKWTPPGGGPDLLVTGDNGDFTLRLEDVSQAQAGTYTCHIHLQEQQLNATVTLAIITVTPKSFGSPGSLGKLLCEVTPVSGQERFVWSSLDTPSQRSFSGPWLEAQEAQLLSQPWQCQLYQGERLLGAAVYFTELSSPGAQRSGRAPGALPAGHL

T2: hFc tagged monkey LAG-3 protein (cLAG-3-hFc protein) (monkey; human)
T2 construct: Made in HEK293 cells; also called monkey LAG-3 extracellular domain protein; not shown: human IgG Fc fragment (hFc) of the pCpC vector
T2 chain: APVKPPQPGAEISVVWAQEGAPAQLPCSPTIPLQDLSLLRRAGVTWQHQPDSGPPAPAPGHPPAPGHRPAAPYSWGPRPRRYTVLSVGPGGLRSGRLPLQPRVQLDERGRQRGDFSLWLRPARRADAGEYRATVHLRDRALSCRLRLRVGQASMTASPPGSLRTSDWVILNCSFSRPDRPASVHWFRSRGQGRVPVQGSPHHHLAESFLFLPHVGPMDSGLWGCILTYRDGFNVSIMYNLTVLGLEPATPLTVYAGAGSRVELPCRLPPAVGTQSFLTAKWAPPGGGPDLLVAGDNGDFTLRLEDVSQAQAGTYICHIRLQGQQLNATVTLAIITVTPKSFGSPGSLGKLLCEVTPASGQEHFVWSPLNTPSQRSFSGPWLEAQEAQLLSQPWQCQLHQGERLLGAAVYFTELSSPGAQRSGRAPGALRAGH


What was measured:
[1] = target: T1, human LAG-3 protein with hFc tag …; assay: FACS, blocks LAG-3-hFc binding to MHC II on Raji; 200.000 nM
Method: The FACS reaction plate incubating the Raji cells was centrifuged to discard the supernatant. The above mixture was added as 100 μl per well to Raji cells and incubated on ice for 1-2 hours. The plate was washed twice with blocking solution (PBS, 2% fetal bovine serum) by centrifugation, added with 100 microliters of fluorescent (Alexa 488)-labeled secondary antibodies per well, and incubated on ice for 1.0 hours. The plate was washed 2-3 times by centrifugation with blocking solution (PBS, 2% fetal bovine serum), added with 100 microliters of PBS per well to suspend cells, and detected using FACS (FACS Calibur, BD) and the results were analyzed. Wherein, the IgG control was murine IgG, and the data in the table is the inhibition rate (%).

[2] = target: T1, human LAG-3 protein with hFc tag …; assay: ELISA, hLAG-3-hFc coated; 6.6667 nM
Method: (§1) The plate was sealed with plastic film and incubated overnight at 4° C. The plate was washed 2 times with the plate washing solution (PBS+0.01% Tween20) on the next day, and added with the blocking solution (PBS+0.01% Tween20+1% BSA) and blocked at room temperature for 1-2 hours. The blocking solution was poured out, and the plate was added with 50-100 μl of the antibody sample to be tested to each well, incubated at 37° C. for 1-2 hours, and washed 2-3 times with a plate washing solution (PBS+0.01% Tween20). HRP (horseradish peroxidase) labeled secondary antibody was added, and the plate was incubated at 37° C. for 1-2 hours, and washed 2-3 times with a plate washing solution (PBS+0.01% Tween20). 100 μl of TMB substrate was added to each well. After incubated at room temperature for 15-30 minutes, the plate was added with 100 μl of stop solution (1.0N HCl) to each well.

[3] = target: T2, hFc tagged monkey LAG-3 protein …; assay: ELISA, cLAG-3-hFc coated; 0.0067 nM
Method: as §1

Binder	Inhibition rate (%) [1] [%]	OD450 [2] [OD450]	OD450 [3] [OD450]
405B8H3 (mouse antibody purified from hybridoma) (antibody, V domains shown, also called mAb103-405B8H3; 405B81-13) VH: QVQLQQSGAELVRPGASVTLSCKASGYTFTDYEMHWVKQTPVHGLEWIGATDPETGNSAYNQKFKGKAIMTADKSSSTAYMELRSLTSEDSAVYYCISTGWNDWGQGTSLTVSS VL: DIKMTQSPSSMYASLGERVTITCKASQDINSYLSWFQQKPGKSPKTLIYRADRLLDGVPSRFSGSGSGQDYSLTISSLEYGDMGIYYCLQYDEFPYTFGGGTKLEIK	93.9	–	–
105F1E10 (mouse antibody purified from hybridoma) (antibody, V domains shown, also called mAb009-105F1E10) VH: EVQLQQSGPELVKPGASVKMSCRASGYTFTDFKMHWMKQSHGKSLEWIGYIAPNNGGTAYNQKFRGKATLTVNESSNTAYMELRSLTSEDSAVYYCVDWDDVDYWGQGTTLTVSS VL: DIKMTQSPSSMYASLGERVTITCKASQDINSYLSWFQQKSGKSPKTLIYRANRLVDGVPSRFSGSGSGQDYSLTISSLEYEDMGIYYCLQYVEFPLTFGAGTKLELK	93.1	–	–
105F1E10 (LAG-3 mouse-human chimeric antibody) (antibody, V domains shown) VH: EVQLQQSGPELVKPGASVKMSCRASGYTFTDFKMHWMKQSHGKSLEWIGYIAPNNGGTAYNQKFRGKATLTVNESSNTAYMELRSLTSEDSAVYYCVDWDDVDYWGQGTTLTVSS VL: DIKMTQSPSSMYASLGERVTITCKASQDINSYLSWFQQKSGKSPKTLIYRANRLVDGVPSRFSGSGSGQDYSLTISSLEYEDMGIYYCLQYVEFPLTFGAGTKLELK	–	3.53	0.26
405B8H3 (LAG-3 mouse-human chimeric antibody) (antibody, V domains shown, also called mouse-human chimeric antibody 405B8H3) VH: QVQLQQSGAELVRPGASVTLSCKASGYTFTDYEMHWVKQTPVHGLEWIGATDPETGNSAYNQKFKGKAIMTADKSSSTAYMELRSLTSEDSAVYYCISTGWNDWGQGTSLTVSS VL: DIKMTQSPSSMYASLGERVTITCKASQDINSYLSWFQQKPGKSPKTLIYRADRLLDGVPSRFSGSGSGQDYSLTISSLEYGDMGIYYCLQYDEFPYTFGGGTKLEIK	–	3.54	0.46
409B11E12 (LAG-3 mouse-human chimeric antibody) (antibody, V domains shown) VH: QVQLQQSGAELVRPGASVTLSCKASGYTFTDYEMHWVKQTTVHGLEWIGATDPETSYSAYNQKFKGKAILTADKSSSTAYMELRSLTSEDSAVYYCIATGWNDWGQGTSLTVSS VL: DLKMTQSPSSMYASLGERVTITCKASQDINSYLSWFQQKPGKSPKTLIYRANRLLDGVPSRFSGSGSGQDYSLTISSLEYEDMGIYYCLQYDEFPYTFGGGTKLEIK	–	3.64	0.39
409B11E12 (mouse antibody purified from hybridoma) (antibody, V domains shown, also called mAb104-409B11E12) VH: QVQLQQSGAELVRPGASVTLSCKASGYTFTDYEMHWVKQTTVHGLEWIGATDPETSYSAYNQKFKGKAILTADKSSSTAYMELRSLTSEDSAVYYCIATGWNDWGQGTSLTVSS VL: DLKMTQSPSSMYASLGERVTITCKASQDINSYLSWFQQKPGKSPKTLIYRANRLLDGVPSRFSGSGSGQDYSLTISSLEYEDMGIYYCLQYDEFPYTFGGGTKLEIK	95	–	–
409D4E10 (mouse antibody purified from hybridoma) (antibody, V domains shown, also called mAb112-409D4E10) VH: QVQLQQSGAELVRPGASVTLSCKASGNTFTDYEMHWVKQTPVHGLEWIGATDPETDNTAYNQKFKGKAILTTDKSSSTAYMELRSLTSEDSAVYYCITSGWNDWGQGTSLTVSS VL: DIKMTQSPSSMYASLGERVTITCKASQDINSYLSWFQQKPGKSPKTLIYRANRLLDGVPSRFSGSGSGQDYSLTISSLEYEDMGIYYCLQYNEFPYTFGGGTKLEIK	95.9	–	–
409D4E10 (LAG-3 mouse-human chimeric antibody) (antibody, V domains shown) VH: QVQLQQSGAELVRPGASVTLSCKASGNTFTDYEMHWVKQTPVHGLEWIGATDPETDNTAYNQKFKGKAILTTDKSSSTAYMELRSLTSEDSAVYYCITSGWNDWGQGTSLTVSS VL: DIKMTQSPSSMYASLGERVTITCKASQDINSYLSWFQQKPGKSPKTLIYRANRLLDGVPSRFSGSGSGQDYSLTISSLEYEDMGIYYCLQYNEFPYTFGGGTKLEIK	–	3.73	0.64
556F6B8 (mouse antibody purified from hybridoma) (antibody, V domains shown, also called mAb123-556F6B8) VH: RVQLKQSGPGLVQPSQSLSITCTVSGFSLIKYGVHWVRQSPGEGLEWLGVIWRGGITDYNAAFMSRLSITKDNSKSQVFFKMNSLQADDTAIYYCAKWDGPLAMDYWGQGTSVTVSS VL: DIVMTQSHKFLSTSVGDRVSITCKASQDVGTTVAWYQQKPGQSPKLLIYWASTRHTGVPDRFTGSGSGTDFTLTISNVQSEDLADYFCQQYSSYPYTFGGGTKLEIK	96	–	–
556F6B8 (LAG-3 mouse-human chimeric antibody) (antibody, V domains shown, also called 556F8B8) VH: RVQLKQSGPGLVQPSQSLSITCTVSGFSLIKYGVHWVRQSPGEGLEWLGVIWRGGITDYNAAFMSRLSITKDNSKSQVFFKMNSLQADDTAIYYCAKWDGPLAMDYWGQGTSVTVSS VL: DIVMTQSHKFLSTSVGDRVSITCKASQDVGTTVAWYQQKPGQSPKLLIYWASTRHTGVPDRFTGSGSGTDFTLTISNVQSEDLADYFCQQYSSYPYTFGGGTKLEIK	–	3.73	0.46
